The text below walks through data of patent publication US20260078416A1, “ORTHOGONAL METABOLIC FRAMEWORK FOR ONE-CARBON UTILIZATION” (Mojia Biotech Pte. Ltd., priority 2021, published 2026).

Series [1] is described as follows: In vitro kinetic assay of purified HACS variants; substrate acetaldehyde. The series is classed as biochemical. To be noted: for Km: read-out: Km, app. On the procedure: (§1) The kinetic assay was performed with a coupled reaction providing formyl-CoA from formate catalyzed by CoA transferase CaAbfT using acetyl-CoA as a CoA donor.
(§2) In vitro kinetic assay was comprised of 100 mM KPi pH 6.9, 10 mM MgCl2, 0.15 mM TPP, 2 mM acetyl-CoA, 1 μM CaAbfT, 0.25 μM HACS variants, and 20 mM sodium formate. Reactions were incubated at room temperature for 3 min to convert formate to formyl-CoA, and then specific concentration of aldehyde (specifically acetaldehyde or propionaldehyde here) was added to the reaction. After incubating another 3 min, 1/20 of the reaction volume of 10 M NaOH solution was added to terminate the reactions. After 30 min hydrolysis, 1/20 of the reaction volume of 10 N H2SO4 was added to neutralize the pH. Samples were centrifuged at 20817×g for 15 minutes and the supernatant analyzed by GC-MS as described below.
(§3) For this analysis, 0.15 of the reaction volume of internal standard methyl succinate was added to the samples. The resulting sample was extracted into 4 mL ethyl acetate by vigorous vortexing for 20 min. The organic phase was separated and evaporated to dryness under a stream of nitrogen. The residue was dissolved in 30 μL pyridine and 30 μL N,O-Bis(trimethylsilyl)trifluoroacetamide (BSTFA) and incubated at 60° C. for 15 minutes. Compound identification and analysis was performed by GC-MS using an Agilent 7890B Series Custom Gas Chromatography system equipped with a 5977B Inert Plus Mass Selective Detector Turbo EI Bundle (for identification) and an Agilent HP-5-ms capillary column (0.25 mm internal diameter, 0.25 μm film thickness, 30 m length). Samples were analyzed by GC (1 μL injection with a 20:1 split ratio) using helium as the carrier gas at a flowrate of 1.5 mL/min and the following temperature profile: initial 90° C. for 3 min; ramp at 15° C./min to 170° C.; ramp at 20° C./min to 300° C. and hold for 8 min. The injector and detector temperature were 250° C. and 350° C., respectively.
(§4) As hypothesized from Example 3 (FIG. 22B), JGI15 had lower Km with lower kcat with respect to formaldehyde in comparison with JGI20 (Table 8). With longer chain aldehydes JGI15 and JGI20 has lower Km (sub millimolar) to acetaldehyde and propionaldehyde compared to JGI23 and JGI24, while also lower Kcat as well. Which indicates they have stronger affinity to the aldehyde and lower enzymatic activity. JGI23 and JGI24 are promising as they have better activity (higher Kcat) which have a good potential to work better in vivo by improve their affinity to substrates (lower Km). Similarly, AcHACL as lower Km with acetone while JGI15 as better Kcat (Table 8).

Series [2] has as its system glycolate production from formaldehyde. In words: High throughput resting-cell screening of first round HACS variants co-expressed with LmACR. To be noted: 5 mM formaldehyde, 3 hours. The series is classed as cell-based, E. coli. From the text: We used glycolic acid (glycolate) productivity per cell density (uM glycolate/OD600) as indicator of HACS activity. Glycolate can be produced from formaldehyde as sole carbon source in the presence of active HACS variant and acyl-CoA reductase from Listeria monocytogenes (LmACR) (FIG. 20A). LmACR is shown to be capable of catalyzing oxidation reaction from formaldehyde to formyl-CoA (Chou, A., et al. Nat. Chem. Biol. 15:900-906 (2019)). HACS condenses formaldehyde and formyl-CoA to form glycolyl-CoA, which can then be hydrolyzed to glycolate via native thioesterase activities (FIG. 20A).
To prototype glycolate production pathway from formaldehyde in vivo, we constructed vectors overexpress various HACS candidates and LmACR, with both under control of the IPTG-inducible T7 promoter in pCDFDuet-1 and pETDuet-1, respectively (FIG. 20C). […]
Cells from the above pre-cultures were then centrifuged (4000 rpm, 22° C.), washed with the above minimal media without any carbon source, and resuspended with 1 mL of above minimal media containing indicated amounts of carbon source. […] After incubation at 30° C. for 3 hours, the cells were pelleted by centrifugation and the supernatant analyzed by HPLC or GC-MS as described below. […] The soluble cell lysates obtained from the supernatant were analyzed using SDS-PAGE. […]

Series [3] is described as follows: In vitro kinetic assay of purified HACS variants; substrate propionaldehyde. To be noted: for Km: read-out: Km, app. The class given is biochemical. Here is the method: as §1, §2, §3, §4
Series [4] is described as follows: In vitro kinetic assay of purified HACS variants, coupled with CaAbfT formyl-CoA generation; substrate formaldehyde. The series is classed as biochemical. To be noted: for Km: read-out: Km, app. Here is the method: as §1, §2, §3, §4

B1: JGI15: HACS variant; GenBank HAK63664.1 (protein)
chain: MAKSEGKVNGATLMARALQQQGVQYMFGIVGFPVIPIAIAAQREGITYIGMRNEQSASYAAQAASYLTGRPQACLVVSGPGVVHALAGLANAQVNCWPMLLIGGASAIEQNGMGAFQEERQVLLASPLCKYAHQVERPERIPYYVEQAVRSALFGRPGAAYLDMPDDVILGEVEEAAVRPAATVGEPPRSLAPQENIEAALDALQSAKRPLVIVGKGMAWSRAENEVRQFIERTRLPFLATPMGKGVMPDDHPLSVGGARSHALQEADLVFLLGARFNWILHFGLPPRYSKDVRVIQLDLSAEEIGNNRQAEVALVGDGKAIVGQLNQALSSRQWFYPAETPWREAIAAKIAGNQAAVAPMIADNTSPMNYYRVYRDIAARLPRNAIIVGEGANTMDIGRTQMPNFEPRSRLDAGSYGTMGIGLGFAVAAAAVHPGRPVIAVQGDSAFGFSGMEFETAARYGMPIKVIILNNGGIGMGSPAPRDGQPGMPHALSHDARYERIAEAFGGAGFYVTDSAELGPALDAAMAFKGPAIVNIKIAATADRKPQQFNWHG
Regarding B1, the “Kcat, app” value in series [1] was determined as 22.50 ± 1.93 s⁻¹; in series [3], 11.08 ± 0.02 s⁻¹; in series [4] it was 5.98 s⁻¹. Further, the Km (usually the concentration of substrate that gives half-maximal velocity) in series [1] was 290 ± 20 µM; in series [3] it was 200 ± 40 µM; in series [4], 3870 µM. Further, in series [2], the “glycolate productivity and relative HACS expression compared with RuHACL” value is “better glycolate productivity and relative HACS expression than the starting reference”.

B2: JGI20: HACS variant; GenBank PWB41796.1 (protein)
chain: MGQITGAQIVARALKQQGVEYMFGIVGIPVIPIAMFAQREGIKFYGFRNEQSASYAAAAVGYLTGRPGVCLGVSGPGMIHGVAGMANAWSNCWPMILIGGANDSYQNGQGAFQEAPQIEAARPFAKYCARPDSLARLPFYVEQAVRTSIYGRPGAVYLDLPGDIITGAMEEEDVHFPPRCPDAPRMMAPQESIDAAMAALKSAERPLVIVGKGAAYSRAENEVREFLETTQLPYLASPMGKGVMPDDHPLSIAPARSAALLGADVILLMGARLNWMMHFGHPPRFDPKVRVIQMDISAEEIGTNVPTEVALVGDAKAITTQLNASLKQQPWQYPSETTWWTGLRKKIDENGATVAEMMADESVPMSYYRVYREIRDLIPNDAIIQNEGASTMDIGRTLMPNFLPRHRLDAGSFGTMGVGLGQAIAAAAVHPDKHVFCIEGDSAFGFSGMEVETAARYGMKNITFIIINNNGIGGGPDTLDPTRVPPSAYTPNAHYEKMAEIYGGKGYFVTEPSQLRPALEEAIKADKPAIVNIMISATSQRKPQQFAWLTR
Consider B2, for which the entries for the “Kcat, app” value in series [1], in series [3] and in series [4] were 39.44 ± 3.95 s⁻¹, 17.35 ± 1.97 s⁻¹ and 9.53 s⁻¹, respectively. The Km amounted to 930 ± 150 µM in series [1], 420 ± 60 µM in series [3] and 21400 µM in series [4]. In series [2], the “glycolate productivity and relative HACS expression compared with RuHACL” value was “better glycolate productivity and relative HACS expression than the starting reference”.
